Test results as given in US5908761, “Galectin-8 and galectin-8-like proteins and DNA molecules coding therefor” (Yeda Research and Development Co. Ltd., dated 1999).

Biological target: the molecule itself
Test: gel filtration over Superdex-200 HR FPLC column (self-association)
Experimental: Approximately 100 μg protein was loaded onto Superdex-200 HR (Pharmacia) FPLC column equilibrated with buffer A (PBS, 4 mM β-mercaptoethanol, 2 mM EDTA), and run for 60 min at 0.5 ml/min. O.D. was measured at 215 nm, and the column profile was obtained by running separately standard marks.
The primary structure of galectin-8 resembles that of galectin-4, namely, two homologous (38% identity) carbohydrate-binding regions (CRDs) linked by a short ≈30-amino acids linking peptide. This unique architecture is shared so far only by two galectins: rat galectin-4 (12) and its *C. elegans* homologue (13). Other galectin types, that contain a single CRD, exist and function as non-covalent dimers, which provides them with the potential to aggregate or agglutinate glycoconjugates. Since galectin-4 exists as a monomer, experiments were carried out to determine whether galectin-8 exists as a monomer or a dimer. […] Hepatic galectin-8 (FIG. 6) has a similar mobility on SDS-PAGE as its recombinant counterpart (FIG. 5).

B1: tag-free recombinant galectin-8 (other)
chain: MLSLSNLQNIIYNPTIPYVSTITEQLKPGSLIVIRGHVPKDSERFQVDFQHGNSLKPRADVAFHFNPRFKRSNCIVCNTLTNEKWGWEEITHDMPFRKEKSFEIVIMVLKNKFHVAVNGKHILLYAHRINPEKIDTLGIFGKVNIHSIGFRFSSDLQSMETSTLGLTQISKENIQKSGKLHLSLPFEARLNASMGPGRTVVVKGEVNTNATSFNVDLVAGRSRDIALHLNPRLNVKAFVRNSFLQDAWGEEERNITCFPFSSGMYFEMIIYCDVREFKVAVNGVHSLEYKHRFKDLSSIDTLAVDGDIRLLDVRSW
Does B1 bind?
Result: no binding
